Assay [1] concerns the target T1, Arabidopsis thaliana DECREASE IN DNA …ON 1 (DDM1), full length (Arabidopsis thaliana, UniProt Q9XFH4 1-764).
T1 construct: DDM1, Snf2-type chromatin remodeling factor, Arabidopsis thaliana, full length; His6-SUMO removed with HRV 3C protease; also called AtDDM1; source: E. coli BL21(DE3) Codon(+) RIL, purified (Ni-NTA, RESOURCE Q flow-through, RESOURCE S, Superdex 200); not shown: His6, N-terminal, cleaved; SUMO, N-terminal, cleaved
Briefly: cross-linking; nucleosomes (0.2 µM) with AtDDM1 (0.4 µM), 60 mM NaCl, 1 mM MgCl2, 1 mM ADP, pH 7.5, 25 °C; 1.6 mM DSS-H12/D12 (lysine-lysine), LC-MS/MS, xQuest/xProphet. Conditions: both partners purified.

Assay [2] concerns the target T2, Arabidopsis thaliana histone H3.1 (Arabidopsis thaliana, UniProt P59226 1-136).
T2 construct: His6 tag removed with thrombin (pET-15b); also called AtH3.1; source: E. coli BL21(DE3) Codon(+) RIL, purified (Ni-NTA and SP cation exchange, denaturing); in reconstituted nucleosomes; not shown: His6, N-terminal, cleaved
The description is as above. The following applies: both partners purified.

T1 sequence (Q9XFH4 whole entry): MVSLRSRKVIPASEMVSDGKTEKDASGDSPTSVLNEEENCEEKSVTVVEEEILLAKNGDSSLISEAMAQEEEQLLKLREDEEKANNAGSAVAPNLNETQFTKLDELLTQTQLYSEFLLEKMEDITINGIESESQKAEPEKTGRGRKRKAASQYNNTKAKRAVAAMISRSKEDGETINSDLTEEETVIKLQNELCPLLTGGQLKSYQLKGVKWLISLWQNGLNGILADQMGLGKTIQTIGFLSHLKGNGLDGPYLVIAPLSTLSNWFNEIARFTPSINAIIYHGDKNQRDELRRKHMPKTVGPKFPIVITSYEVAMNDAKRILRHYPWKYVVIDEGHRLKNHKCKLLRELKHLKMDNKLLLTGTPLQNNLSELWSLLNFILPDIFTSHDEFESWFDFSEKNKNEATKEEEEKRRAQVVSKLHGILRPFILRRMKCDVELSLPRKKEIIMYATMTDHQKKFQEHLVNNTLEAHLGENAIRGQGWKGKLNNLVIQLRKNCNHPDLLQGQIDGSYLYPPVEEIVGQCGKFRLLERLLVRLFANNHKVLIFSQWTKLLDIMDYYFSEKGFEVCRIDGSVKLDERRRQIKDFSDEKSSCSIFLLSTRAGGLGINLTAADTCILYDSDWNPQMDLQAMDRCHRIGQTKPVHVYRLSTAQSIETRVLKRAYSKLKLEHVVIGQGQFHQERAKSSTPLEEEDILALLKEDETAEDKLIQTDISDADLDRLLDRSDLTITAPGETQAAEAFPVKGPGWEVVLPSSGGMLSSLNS

B1: Arabidopsis thaliana histone H2A.W.6 (natural protein)
chain: MESTGKVKKAFGGRKPPGAPKTKSVSKSMKAGLQFPVGRITRFLKKGRYAQRLGGGAPVYMAAVLEYLAAEVLELAGNAARDNKKSRIIPRHLLLAIRNDEELGKLLSGVTIAHGGVLPNINSVLLPKKSATKPAEEKATKSPVKSPKKA
notes: His6 tag removed with thrombin (pET-15b); also called AtH2A.W; AtH2A.W.6; source: E. coli BL21(DE3) Codon(+) RIL, purified (Ni-NTA and SP cation exchange, denaturing); in reconstituted nucleosomes; not shown: His6, N-terminal, cleaved
As to B1, the binding result in assay [1] and in assay [2] was “binds” each time.

For the origin of these results see article PMC11239853, “Molecular and structural basis of the chromatin remodeling activity by Arabidopsis DDM1” (Nature Communications, 2024).
